Measured values reported in patent publication US20240293588A1, “THERAPEUTIC CONJUGATES” (Starpharma Pty Ltd, priority 2020, published 2024).
Values belong to the molecule of their own block, whether it stands above or below them.

Columns and labels:
[1] = test system: HER2-positive MDA-MB-453 cells; assay: Binding of 2D3-dendrimer conjugates to MDA-MB-453 cells (Cy5 MFI); assay type: cell-based, human; settings: for MFI (mean fluorescence intensity, Cy5): MDA-MB-453 cells incubated with dendrimers, triplicate wells, mean with standard deviation; for binding to MDA-MB-453 cells: flow cytometry, result in words
[2] = test system: MDA-MB-231/HER2 (HER2 knock in) cells; assay: In vitro association study (flow cytometry), MDA-MB-231/HER2; assay type: cell-based, human; settings: MDA-MB-231/HER2, 3.33 nM, over 24 h, mean±SD
ErbB2-ECD [3] = biological target: T1, ErbB2-ECD (Homo sapiens, UniProt P04626); assay: SPR, ErbB2-ECD amine-coupled on chip, analyte injected, 25 °C, 1:1 Langmuir fit; affibody dimeric
ErbB2-ECD [4] = biological target: T1, ErbB2-ECD; assay: SPR, ErbB2-ECD amine-coupled on chip, analyte injected, 25 °C, 1:1 Langmuir fit
[5] = biological target: T2, HER2 (human epidermal growth factor receptor 2) on cells (human, UniProt P04626 23-1255); assay: flow cytometry (Cy5), BT-474 cells, 1 h, conjugate at 3 mM (so in the source)
T2 construct: whole, on cells; also called ERBB2; HER2 receptor

[6] = biological target: T2, HER2 (human epidermal growth factor …); assay: flow cytometry (Cy5), BT-474 cells, 1 h, conjugate at 6 mM (so in the source)
[7] = biological target: T2, HER2 (human epidermal growth factor …); assay: flow cytometry (Cy5), BT-474 cells, 1 h, conjugate at 12 mM (so in the source)
[8] = biological target: T2, HER2 (human epidermal growth factor …); assay: flow cytometry (Cy5), BT-474 cells, 1 h, conjugate at 25 mM (so in the source)
[9] = biological target: T2, HER2 (human epidermal growth factor …); assay: flow cytometry (Cy5), MDA-MB-231 parental cells (HER2 lo, control), 0.5 h
[10] = biological target: T2, HER2 (human epidermal growth factor …); assay: flow cytometry (Cy5), MDA-MB-231/HER2 cells, 0.5 h

Molecule: (MeTzPh)PEG4CO-NHPEG24CO—[N(PN)2][Lys]2[Lys]4[Lys]8[Lys]16[((α-NHCy5)1(α-NHAc)15)(ε-NH-COPEG1100)16], G4 [Compound 53]
MFI (mean fluorescence intensity, Cy5) [1]: 6.827 ± 0.07
binding to MDA-MB-453 cells [1]: did not bind
percent of cellular association [2]: significantly lower association

Molecule: (MeTzPh)PEG4CO-NHPEG24CO—[N(PN)2][Lys]2[Lys]4[Lys]8[Lys]16[Lys]32[((α-NHCy5)1(α-NHAc)31)(ε-NH-COPEG1100)32], G5 [Compound 54]
MFI (mean fluorescence intensity, Cy5) [1]: 4.349 ± 0.08
binding to MDA-MB-453 cells [1]: did not bind
percent of cellular association [2]: significantly lower association

Molecule: (MeTzPh)PEG4CO-NHPEG24CO—[N(PN)2][Lys]2[Lys]4[Lys]8[((α-NHCy5)1(α-NHAc)7)(ε-NH-COPEG1100)8], G3 [Compound 52]
MFI (mean fluorescence intensity, Cy5) [1]: 3.097 ± 0.01
binding to MDA-MB-453 cells [1]: did not bind
percent of cellular association [2]: significantly lower association

B3: [(ε-NHCO-PEG1100)16(α-DOTA)7(α-NHCy5)1(α-NH2)8][Lys]16[Lys]8[Lys]4[Lys]2[Lys]-(PN)NCO-PEG24-CONH-PEG4-(PhTzMe)/TCO-PEG3-NHCO-PEG24-Glu-DBCO/N3-Nanobody SRS-22 (VHH)
VHH: EVQLVESGGSLVQPGGSLRLSCAASGFTFDDYAMSWVRQVPGKGLEWVSSINWSGTHTDYADSVKGRFTISRNNANNTLYLQMNSLKSEDTAVYYCAKNWRDAGTTWFEKSGSAGQGTQVTVSS
modifications: # (unnatural amino acid, p-azido-phenylalanine, after ...QVTVSS) clicked to the DBCO of SRS-22a (linker Compound 51 on dendrimer HH-2: 1 Cy5, 7 DOTA, 16 PEG1100)
MFI [5]: 2640
MFI [6]: 4910
MFI [7]: 6550
MFI [8]: 6490

B8: [[(ε-NHCO-PEG1100)8(α-NHDOTA)4.75(α-NHCy5)0.5(α-NH2)2.75][Lys]8[Lys]4[Lys]2[Lys]-CONH-CH2-CH2-S-]2MAL-PEG3-NHCO-PEG24-CONH-PEG4-(PhTzMe)/TCO-PEG3-NHCO-PEG24-Glu … (VHH)
VHH: EVQLVESGGSLVQPGGSLRLSCAASGFTFDDYAMSWVRQVPGKGLEWVSSINWSGTHTDYADSVKGRFTISRNNANNTLYLQMNSLKSEDTAVYYCAKNWRDAGTTWFEKSGSAGQGTQVTVSS
modifications: # (unnatural amino acid, p-azido-phenylalanine, after ...QVTVSS) clicked to the DBCO of SRS-20a (linker Compound 51 on dendrimer SRS-4-Mal: maleimide core, Cy5, DOTA, PEG1100)
MFI [5]: 1500
MFI [6]: 2170
MFI [7]: 3140
MFI [8]: 3400

B9: BHA[Lys]2[Lys]4[Lys]8[Lys]16[Lys]32[((α-NH-COPEG24NH-COPEG4(PhMeTz)/TCO-PEG3NH-COPEG24NH-Glu-DBCO/N3-Nanobody)1(α-Lys(α-NHCy5)(ε-NHDFO))1(α-NH2)30(ε-NH-COPEG100 … (VHH)
VHH: EVQLVESGGSLVQPGGSLRLSCAASGFTFDDYAMSWVRQVPGKGLEWVSSINWSGTHTDYADSVKGRFTISRNNANNTLYLQMNSLKSEDTAVYYCAKNWRDAGTTWFEKSGSAGQGTQVTVSS
modifications: # (unnatural amino acid, p-azido-phenylalanine, after ...QVTVSS) clicked to the DBCO of linker Compound 51, whose TCO is joined to the tetrazine on the surface of the G5 lysine dendrimer Compound 29 (Cy5, DFO, 32 PEG1000)
notes: also called BHA-G5-PEG1000 + NB
percent of cellular association [9]: 17.5%
percent of cellular association [10]: 165%

The remaining lines, values ahead:

Kd (ErbB2-ECD [3]): 0.266 nM
koff (ErbB2-ECD [3]): 0.00051 s⁻¹
kon (ErbB2-ECD [3]): 1.9e+06 M⁻¹ s⁻¹
Molecule: Affibody protein (HER2, Affibody AB) (designed binder)

Kd (ErbB2-ECD [4]): 50 nM
koff (ErbB2-ECD [4]): 0.0013 s⁻¹
kon (ErbB2-ECD [4]): 25000 M⁻¹ s⁻¹
Molecule: Affibody-BCN/N3-PEG24CO-[N(PN)2][Lys]2[Lys]4[Lys]8[(α-NHGlu-vc-PAB-MMAE)8(ε-NH-COPEG1100)8], G3, Compound 77 (designed binder)

Kd (ErbB2-ECD [4]): 36 nM
koff (ErbB2-ECD [4]): 0.00114 s⁻¹
kon (ErbB2-ECD [4]): 32000 M⁻¹ s⁻¹
Molecule: Affibody-BCN/N3-PEG24CO-[N(PN)2][Lys]2[Lys]4[Lys]8[(α-NHGlu-vc-PAB-MMAE)8(ε-NH-COPEG2000)8], G3, Compound 78 (designed binder)

MFI [5]: 915
MFI [6]: 1460
MFI [7]: 2270
MFI [8]: 2150
B1: [[(ε-NHCO-PEG1100)8(α-NHDOTA)4.75(α-NHCy5)0.5(α-NH2)2.75][Lys]8[Lys]4[Lys]2[Lys]-CONH-CH2-CH2-S-]2MAL-PEG3-NHCO-PEG24-CONH-PEG4-(PhTzMe)/TCO-NHCO-PEG24-(MAL)Me/ … (VHH)
VHH: EVQLVESGGSLVQPGGSLRLSCAASGFTFDDYAMSWVRQVPGKGLEWVSSINWSGTHTDYADSVKGRFTISRNNANNTLYLQMNSLKSEDTAVYYCAKNWRDAGTTWFEKSGSAGQGTQVTVSS
modifications: the additional cysteine (in …) coupled to the methylmaleimide of linker SRS-12 (intermediate SRS-14), whose TCO is joined to the tetrazine of dendrimer SRS-4-Mal (maleimide core, Cy5, DOTA, PEG1100)

MFI [5]: 716
MFI [6]: 732
MFI [7]: 1370
MFI [8]: 1450
B2: [(ε-NHCO-PEG1100)16(α-NHCy5)1(α-NHDOTA)8(α-NH2)7][Lys]16[Lys]8[Lys]4[Lys]2[Lys]-CONH-CH2-CH2-S-(Me)MAL-PEG24-CONH-Bn-Tz(Me)/TCO-NHCO-PEG24-(MAL)Me/Cys-Nanobody … (VHH)
VHH: EVQLVESGGSLVQPGGSLRLSCAASGFTFDDYAMSWVRQVPGKGLEWVSSINWSGTHTDYADSVKGRFTISRNNANNTLYLQMNSLKSEDTAVYYCAKNWRDAGTTWFEKSGSAGQGTQVTVSS
modifications: the additional cysteine (in …) coupled to the methylmaleimide of linker SRS-12 (intermediate SRS-14), whose TCO is joined to the tetrazine of dendron RP-5 (1 Cy5, 8 DOTA, 16 PEG1100)

MFI [5]: 3100
MFI [6]: 4640
MFI [7]: 5260
MFI [8]: 4760
B4: BHALys[Lys]2[Lys]4[Lys]8[Lys]16[((α-NH-COPEG24NH-COPEG4(PhTzMe)/TCO-PEG3-NHCO-PEG24-(MAL)Me/Cys-Nanobody)1(α-NHCy5)1(α-NHDOTA))10(α-NH2)4)(ε-NH-COPEG1000)16] … (VHH)
VHH: EVQLVESGGSLVQPGGSLRLSCAASGFTFDDYAMSWVRQVPGKGLEWVSSINWSGTHTDYADSVKGRFTISRNNANNTLYLQMNSLKSEDTAVYYCAKNWRDAGTTWFEKSGSAGQGTQVTVSS
modifications: the additional cysteine (in …) coupled to the methylmaleimide of SRS-21a (linker SRS-12 on G4 dendrimer SRS-1: 1 Cy5, 10 DOTA, 16 PEG1000)

MFI [5]: 1020
MFI [6]: 1530
MFI [7]: 2270
MFI [8]: 2550
B5: [(ε-NHCO-PEG1100)16(α-DOTA)7(α-NHCy5)1(α-NH2)8][Lys]16[Lys]8[Lys]4[Lys]2[Lys]-(PN)NCO-PEG24-CONH-PEG4-(PhTzMe)/TCO-NHCO-PEG24-(MAL)Me/Cys-Nanobody SRS-17 (VHH)
VHH: EVQLVESGGSLVQPGGSLRLSCAASGFTFDDYAMSWVRQVPGKGLEWVSSINWSGTHTDYADSVKGRFTISRNNANNTLYLQMNSLKSEDTAVYYCAKNWRDAGTTWFEKSGSAGQGTQVTVSS
modifications: the additional cysteine (in …) coupled to the methylmaleimide of linker SRS-12 (intermediate SRS-14), whose TCO is joined to the tetrazine of dendrimer HH-2 (1 Cy5, 7 DOTA, 16 PEG1100)

percent of cellular association [9]: 25.1%
percent of cellular association [10]: 218%
B6: BHALys[Lys]2[Lys]4[Lys]8[((α-NH-COPEG24NH-COPEG4(PhMeTz)/TCO-PEG3NH-COPEG24NH-Glu-DBCO/N3-Nanobody)1(α-Lys(α-NHCy5)(ε-NHDFO))1(α-NH2)6)(ε-NH-COPEG1000)8], G3, … (VHH)
VHH: EVQLVESGGSLVQPGGSLRLSCAASGFTFDDYAMSWVRQVPGKGLEWVSSINWSGTHTDYADSVKGRFTISRNNANNTLYLQMNSLKSEDTAVYYCAKNWRDAGTTWFEKSGSAGQGTQVTVSS
modifications: # (unnatural amino acid, p-azido-phenylalanine, after ...QVTVSS) clicked to the DBCO of linker Compound 51, whose TCO is joined to the tetrazine on the surface of the G3 lysine dendrimer Compound 27 (Cy5, DFO, 8 PEG1000)
notes: also called BHA-G3-PEG1000 + NB

percent of cellular association [9]: 30.8%
percent of cellular association [10]: 190%
B7: BHALys[Lys]2[Lys]4[((α-NH-COPEG24NH-COPEG4(PhMeTz)/TCO-PEG3NH-COPEG24NH-Glu-DBCO/N3-Nanobody)1(α-Lys(α-NHCy5)(ε-NHDFO))1(α-NH2)2)(ε-NH-COPEG1000)4], G2, … (VHH)
VHH: EVQLVESGGSLVQPGGSLRLSCAASGFTFDDYAMSWVRQVPGKGLEWVSSINWSGTHTDYADSVKGRFTISRNNANNTLYLQMNSLKSEDTAVYYCAKNWRDAGTTWFEKSGSAGQGTQVTVSS
modifications: # (unnatural amino acid, p-azido-phenylalanine, after ...QVTVSS) clicked to the DBCO of linker Compound 51, whose TCO is joined to the tetrazine on the surface of the G2 lysine dendrimer Compound 25 (Cy5, DFO, 4 PEG1000)
notes: also called BHA-G2-PEG1000 + NB

percent of cellular association [9]: 20%
percent of cellular association [10]: 157%
B10: BHA[Lys]2[Lys]4[Lys]8[Lys]16[((α-NH-COPEG24NH-COPEG4(PhMeTz)/TCO-PEG3NH-COPEG24NH-Glu-DBCO/N3-Nanobody)1(α-Lys(α-NHCy5)(ε-NHDFO))1(α-NH2)14(ε-NH-COPEG1000)16], … (VHH)
VHH: EVQLVESGGSLVQPGGSLRLSCAASGFTFDDYAMSWVRQVPGKGLEWVSSINWSGTHTDYADSVKGRFTISRNNANNTLYLQMNSLKSEDTAVYYCAKNWRDAGTTWFEKSGSAGQGTQVTVSS
modifications: # (unnatural amino acid, p-azido-phenylalanine, after ...QVTVSS) clicked to the DBCO of linker Compound 51, whose TCO is joined to the tetrazine on the surface of the G4 lysine dendrimer Compound 28 (Cy5, DFO, 16 PEG1000)
notes: One nanobody on each dendrimer; also called single 2D3-dendrimer conjugate; BHA-G4-PEG1000 + NB
